Where “and” joins values, the source holds several entries; their conditions need not be identical. Equal entries are not always repeated.
Assays:
not read = substrate: Oc1ccc2ccccc2c1; assay: not read
[1] = substrate: Oc1ccc2ccoc2c1; assay: (§1) Substrate activity at SULT1A1 (unknown origin) expressed in baculovirus infected Sf9 cells assessed as substrate Km incubated for 15 mins using [35S-]PAPS as sulfate donor by TLC analysis; parameters: species or system Homo sapiens
[2] = substrate: Cc1nc2cc(O)ccc2s1; assay: as §1; parameters: species or system Homo sapiens
[3] = substrate: Oc1ccc2nc(-c3ccccc3)sc2c1; assay: as §1; parameters: species or system Homo sapiens
[4] = substrate: Oc1ccc2sccc2c1; assay: as §1; parameters: species or system Homo sapiens
[5] = substrate: CNc1ccc(-c2nc3cc(O)ccc3s2)cc1; assay: as §1; parameters: species or system Homo sapiens
[6] = substrate: Oc1ccc2[nH]cnc2c1; assay: as §1; parameters: species or system Homo sapiens
[7] = substrate: Oc1ccc2occc2c1; assay: as §1; parameters: species or system Homo sapiens
[8] = substrate: Oc1ccc2ccsc2c1; assay: as §1; parameters: species or system Homo sapiens
[9] = substrate: Cc1nc2ccc(O)cc2s1; assay: as §1; parameters: species or system Homo sapiens
[10] = substrate: Oc1ccc2[nH]ccc2c1; assay: as §1; parameters: species or system Homo sapiens
[11] = substrate: CN(C)c1ccc(-c2nc3cc(O)ccc3s2)cc1; assay: as §1; parameters: species or system Homo sapiens
[12] = substrate: Oc1ccc2ncsc2c1; assay: as §1; parameters: species or system Homo sapiens
[13] = substrate: Oc1ccc2ncoc2c1; assay: as §1; parameters: species or system Homo sapiens
[14] = substrate: Oc1ccc2cc[nH]c2c1; assay: as §1; parameters: species or system Homo sapiens
[15] = substrate: Oc1ccc2ccoc2c1; assay: (§2) Substrate activity at SULT1A3 (unknown origin) expressed in baculovirus infected Sf9 cells assessed as substrate Km incubated for 15 mins using [35S-]PAPS as sulfate donor by TLC analysis; parameters: species or system Homo sapiens
[16] = substrate: Cc1nc2cc(O)ccc2s1; assay: as §2; parameters: species or system Homo sapiens
[17] = substrate: Oc1ccc2sccc2c1; assay: as §2; parameters: species or system Homo sapiens
[18] = substrate: Oc1ccc2occc2c1; assay: as §2; parameters: species or system Homo sapiens
[19] = substrate: Oc1ccc2ccsc2c1; assay: as §2; parameters: species or system Homo sapiens
[20] = substrate: Oc1ccc2[nH]ccc2c1; assay: as §2; parameters: species or system Homo sapiens
[21] = substrate: Oc1ccc2ncsc2c1; assay: as §2; parameters: species or system Homo sapiens
[22] = substrate: Oc1ccc2ncoc2c1; assay: as §2; parameters: species or system Homo sapiens
[23] = substrate: Oc1ccc2cc[nH]c2c1; assay: as §2; parameters: species or system Homo sapiens
[24] = substrate: Oc1ccc2ccoc2c1; assay: (§3) Substrate activity at SULT1E1 (unknown origin) expressed in baculovirus infected Sf9 cells assessed as substrate Km incubated for 15 mins using [35S-]PAPS as sulfate donor by TLC analysis; parameters: species or system Homo sapiens
[25] = substrate: Cc1nc2cc(O)ccc2s1; assay: as §3; parameters: species or system Homo sapiens
[26] = substrate: CN(C)c1ccc(-c2nc3ccc(O)cc3s2)cc1; assay: as §3; parameters: species or system Homo sapiens
[27] = substrate: Oc1ccc2nc(-c3ccc(F)cc3)sc2c1; assay: as §3; parameters: species or system Homo sapiens
[28] = substrate: Oc1ccc2nc(-c3ccccc3)sc2c1; assay: as §3; parameters: species or system Homo sapiens
[29] = substrate: CC(=O)Nc1ccc(-c2nc3ccc(O)cc3s2)cc1; assay: as §3; parameters: species or system Homo sapiens
[30] = substrate: CNc1ccc(-c2nc3ccc(O)cc3s2)cc1; assay: as §3; parameters: species or system Homo sapiens
[31] = substrate: Oc1ccc2sccc2c1; assay: as §3; parameters: species or system Homo sapiens
[32] = substrate: CNc1ccc(-c2nc3cc(O)ccc3s2)cc1; assay: as §3; parameters: species or system Homo sapiens
[33] = substrate: Oc1ccc2occc2c1; assay: as §3; parameters: species or system Homo sapiens
[34] = substrate: Oc1ccc2nc(-c3ccc(I)cc3)sc2c1; assay: as §3; parameters: species or system Homo sapiens
[35] = substrate: Oc1ccc2ccsc2c1; assay: as §3; parameters: species or system Homo sapiens
[36] = substrate: Cc1nc2ccc(O)cc2s1; assay: as §3; parameters: species or system Homo sapiens
[37] = substrate: O=[N+]([O-])c1ccc(-c2nc3ccc(O)cc3s2)cc1; assay: as §3; parameters: species or system Homo sapiens
[38] = substrate: Nc1ccc(-c2nc3ccc(O)cc3s2)cc1; assay: as §3; parameters: species or system Homo sapiens
[39] = substrate: COc1ccc(-c2nc3ccc(O)cc3s2)cc1; assay: as §3; parameters: species or system Homo sapiens
[40] = substrate: N#Cc1ccc(-c2nc3ccc(O)cc3s2)cc1; assay: as §3; parameters: species or system Homo sapiens
[41] = substrate: CS(=O)(=O)c1ccc(-c2nc3ccc(O)cc3s2)cc1; assay: as §3; parameters: species or system Homo sapiens
[42] = substrate: CN(C)c1ccc(-c2nc3cc(O)ccc3s2)cc1; assay: as §3; parameters: species or system Homo sapiens
[43] = substrate: Oc1ccc2ncsc2c1; assay: as §3; parameters: species or system Homo sapiens
[44] = substrate: Oc1ccc2ncoc2c1; assay: as §3; parameters: species or system Homo sapiens

B1: Sulfotransferase 1A1 (Homo sapiens) (protein)
chain: MELIQDTSRPPLEYVKGVPLIKYFAEALGPLQSFQARPDDLLISTYPKSGTTWVSQILDMIYQGGDLEKCHRAPIFMRVPFLEFKAPGIPSGMETLKDTPAPRLLKTHLPLALLPQTLLDQKVKVVYVARNAKDVAVSYYHFYHMAKVHPEPGTWDSFLEKFMVGEVSYGSWYQHVQEWWELSRTHPVLYLFYEDMKENPKREIQKILEFVGRSLPEETVDFVVQHTSFKEMKKNPMTNYTTVPQEFMDHSISPFMRKGMAGDWKTTFTVAQNERFDADYAEKMAGCSLSFRSEL
Km (not read): 0.17 µM
Vmax (not read): 0.0146 µmol/min/mg
Km [1]: 0.18 µM
Vmax [1]: 0.0265 µmol/min/mg
Km [2]: 5.9 µM
Vmax [2]: 0.0193 µmol/min/mg
Km [3]: 0.045 µM
Vmax [3]: 0.00525 µmol/min/mg
Km [4]: 0.14 µM
Vmax [4]: 0.0112 µmol/min/mg
Km [5]: 0.012 µM
Vmax [5]: 0.0039 µmol/min/mg
Km [6]: 19.3 µM
Vmax [6]: 0.0085 µmol/min/mg
Km [7]: 0.62 µM
Vmax [7]: 0.00987 µmol/min/mg
Km [8]: 0.08 µM
Vmax [8]: 0.00978 µmol/min/mg
Km [9]: 6.2 µM
Vmax [9]: 0.0103 µmol/min/mg
Km [10]: 6.62 µM
Vmax [10]: 0.0128 µmol/min/mg
Km [11]: 0.04 µM
Vmax [11]: 0.011 µmol/min/mg
Km [12]: 2.08 µM
Vmax [12]: 0.0103 µmol/min/mg
Km [13]: 5.5 µM
Vmax [13]: 0.0132 µmol/min/mg
Km [14]: 0.23 µM
Vmax [14]: 0.0203 µmol/min/mg

B2: Sulfotransferase 1E1 (Homo sapiens) (protein)
chain: MNSELDYYEKFEEVHGILMYKDFVKYWDNVEAFQARPDDLVIATYPKSGTTWVSEIVYMIYKEGDVEKCKEDVIFNRIPFLECRKENLMNGVKQLDEMNSPRIVKTHLPPELLPASFWEKDCKIIYLCRNAKDVAVSFYYFFLMVAGHPNPGSFPEFVEKFMQGQVPYGSWYKHVKSWWEKGKSPRVLFLFYEDLKEDIRKEVIKLIHFLERKPSEELVDRIIHHTSFQEMKNNPSTNYTTLPDEIMNQKLSPFMRKGITGDWKNHFTVALNEKFDKHYEQQMKESTLKFRTEI
Vmax (not read): 0.00339 µmol/min/mg and 0.00486 µmol/min/mg
Km [15]: 377 µM
Vmax [15]: 0.00888 µmol/min/mg
Km [16]: 1040 µM
Vmax [16]: 0.0101 µmol/min/mg
Km [17]: 251 µM
Vmax [17]: 0.00612 µmol/min/mg
Km [18]: 385 µM
Vmax [18]: 0.00834 µmol/min/mg
Km [19]: 157 µM
Vmax [19]: 0.00982 µmol/min/mg
Km [20]: 575 µM
Vmax [20]: 0.00366 µmol/min/mg
Km [21]: 280 µM
Vmax [21]: 0.00809 µmol/min/mg
Km [22]: 1070 µM
Vmax [22]: 0.0115 µmol/min/mg
Km [23]: 2710 µM
Vmax [23]: 0.0195 µmol/min/mg
Km [24]: 90.9 µM
Vmax [24]: 0.00272 µmol/min/mg
Km [25]: 15.9 µM
Vmax [25]: 0.0047 µmol/min/mg
Km [26]: 1.33 µM
Vmax [26]: 0.00149 µmol/min/mg
Km [27]: 0.92 µM
Vmax [27]: 0.00416 µmol/min/mg
Km [28]: 0.99 µM
Vmax [28]: 0.00318 µmol/min/mg
Km [29]: 2.36 µM
Vmax [29]: 0.00204 µmol/min/mg
Km [30]: 1.6 µM
Vmax [30]: 0.0021 µmol/min/mg
Km [31]: 38 µM
Vmax [31]: 0.00291 µmol/min/mg
Km [32]: 1.31 µM
Vmax [32]: 0.00182 µmol/min/mg
Km [33]: 177 µM
Vmax [33]: 0.00179 µmol/min/mg
Km [34]: 0.52 µM
Vmax [34]: 0.00295 µmol/min/mg
Km [35]: 11.5 µM
Vmax [35]: 0.00287 µmol/min/mg
Km [36]: 6.96 µM
Vmax [36]: 0.00329 µmol/min/mg
Km [37]: 0.12 µM
Vmax [37]: 0.00343 µmol/min/mg
Km [38]: 1.63 µM
Vmax [38]: 0.00278 µmol/min/mg
Km [39]: 0.9 µM
Vmax [39]: 0.00197 µmol/min/mg
Km [40]: 0.25 µM
Vmax [40]: 0.00433 µmol/min/mg
Km [41]: 1.32 µM
Vmax [41]: 0.00357 µmol/min/mg
Km [42]: 0.39 µM
Vmax [42]: 0.00098 µmol/min/mg
Km [43]: 61.3 µM
Vmax [43]: 0.0023 µmol/min/mg
Km [44]: 525 µM
Vmax [44]: 0.0033 µmol/min/mg

B3: Sulfotransferase 2A1 (Homo sapiens) (protein)
chain: MSDDFLWFEGIAFPTMGFRSETLRKVRDEFVIRDEDVIILTYPKSGTNWLAEILCLMHSKGDAKWIQSVPIWERSPWVESEIGYTALSETESPRLFSSHLPIQLFPKSFFSSKAKVIYLMRNPRDVLVSGYFFWKNMKFIKKPKSWEEYFEWFCQGTVLYGSWFDHIHGWMPMREEKNFLLLSYEELKQDTGRTIEKICQFLGKTLEPEELNLILKNSSFQSMKENKMSNYSLLSVDYVVDKAQLLRKGVSGDWKNHFTVAQAEDFDKLFQEKMADLPRELFPWE
Km (not read): 254 µM
Vmax (not read): 0.00019 µmol/min/mg

Source: ChEMBL document CHEMBL4482315, “In vivo imaging of sulfotransferases” (2013)
